# Reference: patent publication US5945288
# System: PmeI restriction endonuclease (Pseudomonas mendocina)
# Assay: cleavage_in_vitro
# Settings: column fractions assayed on lambda DNA
substance,measurement,value
bacteriophage lambda DNA,activity (units (total purified)),116000
